{"source": "paper PMC2805756", "origin": "cited, not measured here", "target": "His107 (UniProt position 107, SSGMIHLLVQV)", "assay": "kinetics", "conditions": "free wild-type enzyme (thiolate-imidazolium ion pair)"}
{"substance": "Arylamine N-acetyltransferase 2 (hamster NAT2), wild type (Mesocricetus auratus (the article says only 'hamster'))", "values": [{"measurement": "pKa", "value": ">9.5"}]}
